Legend:
[1] = target: RPM-1 chimeric HMPV/RSV F protein (HMPV F with the grafted RSV site A/II palivizumab/motavizumab epitope) (human metapneumovirus, B2 strain); test: SEC; gel filtration of complexes made of RPM-1 and Fab
[2] = target: RPM-1 chimeric HMPV/RSV F protein (HMPV F with the grafted RSV site A/II palivizumab/motavizumab epitope) (human metapneumovirus, B2 strain); test: SPR; BiOptix 404pi; F proteins captured on NiHC1000m chip through their C-terminal His tag to 120 RU; Fab injected at 300 to 0.14 nM, 100 ul/min; 10 mM HEPES pH 7.2, 150 mM NaCl, 0.005% Tween 20, 50 uM EDTA; simple Langmuir model

B1: motavizumab Fab (affinity-matured variant of palivizumab, anti-RSV F site II/A) (Fab, V domains shown)
VH: QVTLRESGPALVKPTQTLTLTCTFSGFSLSTAGMSVGWIRQPPGKALEWLADIWWDDKKHYNPSLKDRLTISKDTSKNQVVLKVTNMDPADTATYYCARDMIFNFYFDVWGQGTTVTVSS
VL: DIQMTQSPSTLSASVGDRVTITCSASSRVGYMHWYQQKPGKAPKLLIYDTSKLASGVPSRFSGSGSGTEFTLTISSLQPDDFATYYCFQGSGYPFTFGGGTKVEIK
**Q.** Which stoichiometry N (Fabs per F trimer) [1] does the source give for B1 here?
**A.** 3

**Q.** And the Kd [2]?
**A.** 7.11 pM

**Q.** What about the koff [2] of the same binder?
**A.** 1.8e-05 s⁻¹

**Q.** What about the kon [2] of the same binder?
**A.** 2.41e+06 M⁻¹ s⁻¹

**Q.** What about the t1/2 [2] of the same binder?
**A.** 10.9 h

Source: publication PMC4880302
